Assay results from the supplement of paper PMC7877785.
± gives the uncertainty stated by the source.

Experiment: self-splicing fitness, log relative to wild type (ln ratio); higher = more splicing; Tetrahymena group I intron in knt gene, E. coli kanamycin selection, DiMSum; sequences stand for … in CUCUCU…GGAGGGAAAAGUUAUCAGGCAUGCACCUGGUAGCUAGUCUUUAAACCAAUAGAUUGCAUCGGUUUAAAAGGCAAGACCGUCAAAUUGCGGGAAAGGGGUCAACAGCCGUUCAGUACCAAGUCUCAGGGGAAACUUUGAGAUGGCCUUGCAAAGGGUAUGGUAAUAAGCUGACGGACAUGGUCCUAACCACGCAGCCAAGUCCUAAGUCAACAGAUCUUCUGUUGAUAUGGAUGCAGUUCACAGACUAAAUGUCGGUCGGGGAAGAUGUAUUCUUCUCAUAAGAUAUAGUCGGACCUCUCCUUAAUGGGAGCUAGCGGAUGAAGUGAUGCAACACUGGAGCCGCUGGGAACUAAUUUGUAUGCGAAAGUAUAUUGAUUAGUUUUGGAGUACUCGUGGUCG
In short: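 Pooled colonies went to amplicon sequencing on an Illumina HiSeq 2500 after six replicate transformations. The plates were LB agar with 100 μg/mL carbenicillin, 50 μM IPTG and 0.2% rhamnose, with or without 25 μg/mL kanamycin, incubated overnight at 37°C or 30°C. The E. coli BL21(DE3) library had all eight P1ex-region intron nucleotides randomised, the intron placed in the knt kanamycin-resistance gene on pET-22b(+). DiMSum fitness is the error-weighted combination of replicate fold changes, kanamycin against none, normalised to wild type.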

For CGAGAGCAAUAUUACGCUUC, which “self-splicing fitness (ln)” value (30 °C) is on record?
Its value is -2.04 ± 0.37.

What about the “self-splicing fitness (ln)” value (37 °C) of the same sequence?
The value was -1.61 ± 0.31.

For CGAGAGCAAUAUUACGGAAA, which “self-splicing fitness (ln)” value (30 °C) is on record?
Its value is -1.65 ± 0.33.

What does the source list for CGAGAGCAAUAUUACGGCGA?
self-splicing fitness (ln) (30 °C): -2.72 ± 0.3; self-splicing fitness (ln) (37 °C): -1.28 ± 0.31

For CGAGAGCAAUAUUACGGGAU, which “self-splicing fitness (ln)” value (30 °C) is on record?
Its value is -2.56 ± 0.13.

And the “self-splicing fitness (ln)” value (37 °C)?
The value was -2.53 ± 0.23.

With CGAGAGCAAUAUUACGGGGC as the sequence, how does the “self-splicing fitness (ln)” value (30 °C) read?
The value was -2.35 ± 0.31.

And the “self-splicing fitness (ln)” value (37 °C)?
The value was -2.61 ± 0.39.

For CGAGAGCAAUAUUACGGUGU, which “self-splicing fitness (ln)” value (30 °C) is on record?
Its value is -3.56 ± 0.21.

What about the “self-splicing fitness (ln)” value (37 °C) of the same sequence?
Its value is -2.73 ± 0.24.

Which results are given for CGAGAGCAAUAUUACGUAGC?
self-splicing fitness (ln) (30 °C): -4.39 ± 0.42; self-splicing fitness (ln) (37 °C): -2.52 ± 0.27

Which “self-splicing fitness (ln)” value (30 °C) does the source give for CGAGAGCAAUAUUACGUCAU here?
Its value is -3.96 ± 0.4.

And the “self-splicing fitness (ln)” value (37 °C)?
The value was -1.78 ± 0.33.

Which “self-splicing fitness (ln)” value (30 °C) does the source give for CGAGAGCAAUAUUACGUUAA here?
Its value is -2.26 ± 0.22.

What does the source list for CGAGAGCAAUAUUACGUUCA?
self-splicing fitness (ln) (30 °C): -2.34 ± 0.21; self-splicing fitness (ln) (37 °C): -2.69 ± 0.31

Which “self-splicing fitness (ln)” value (30 °C) does the source give for CGAGAGCAAUAUUACGUUCG here?
The value was -3.2 ± 0.2.

And the “self-splicing fitness (ln)” value (37 °C)?
The value was -1.73 ± 0.23.

Which “self-splicing fitness (ln)” value (30 °C) does the source give for CGAUAGCAAUAUUACGAACC here?
The value was -2.68 ± 0.27.

What about the “self-splicing fitness (ln)” value (37 °C) of the same sequence?
Its value is -0.913 ± 0.28.

For CGAUAGCAAUAUUACGAAGA, which “self-splicing fitness (ln)” value (37 °C) is on record?
The value was -2.21 ± 0.4.

For CGAUAGCAAUAUUACGACGC, which “self-splicing fitness (ln)” value (30 °C) is on record?
Its value is -2.34 ± 0.39.

What about the “self-splicing fitness (ln)” value (37 °C) of the same sequence?
The value was 0.00994 ± 0.27.

For CGAUAGCAAUAUUACGACUA, which “self-splicing fitness (ln)” value (30 °C) is on record?
The value was -1.8 ± 0.26.

What about the “self-splicing fitness (ln)” value (37 °C) of the same sequence?
The value was -2.13 ± 0.23.

Which results are given for CGAUAGCAAUAUUACGACUG?
self-splicing fitness (ln) (30 °C): -0.203 ± 0.083; self-splicing fitness (ln) (37 °C): 0.803 ± 0.1

With CGAUAGCAAUAUUACGACUU as the sequence, how does the “self-splicing fitness (ln)” value (30 °C) read?
The value was -1.4 ± 0.088.

And the “self-splicing fitness (ln)” value (37 °C)?
Its value is -1.47 ± 0.13.

With CGAUAGCAAUAUUACGAUAA as the sequence, how does the “self-splicing fitness (ln)” value (30 °C) read?
Its value is -3.37 ± 0.27.

And the “self-splicing fitness (ln)” value (37 °C)?
The value was -2.2 ± 0.35.

Which “self-splicing fitness (ln)” value (30 °C) does the source give for CGAUAGCAAUAUUACGCCGU here?
The value was -2.9 ± 0.15.

And the “self-splicing fitness (ln)” value (37 °C)?
Its value is -1.78 ± 0.14.

With CGAUAGCAAUAUUACGCGGC as the sequence, how does the “self-splicing fitness (ln)” value (30 °C) read?
Its value is -2.93 ± 0.41.

Which results are given for CGAUAGCAAUAUUACGCGUG?
self-splicing fitness (ln) (30 °C): -1.89 ± 0.092; self-splicing fitness (ln) (37 °C): -0.431 ± 0.1

What does the source list for CGAUAGCAAUAUUACGCUUC?
self-splicing fitness (ln) (30 °C): -3.11 ± 0.26; self-splicing fitness (ln) (37 °C): -2.99 ± 0.47

For CGAUAGCAAUAUUACGGAUA, which “self-splicing fitness (ln)” value (37 °C) is on record?
Its value is -0.838 ± 0.19.

For CGAUAGCAAUAUUACGGCCU, which “self-splicing fitness (ln)” value (30 °C) is on record?
Its value is -1.67 ± 0.19.

And the “self-splicing fitness (ln)” value (37 °C)?
The value was -0.545 ± 0.2.

With CGAUAGCAAUAUUACGGCGG as the sequence, how does the “self-splicing fitness (ln)” value (30 °C) read?
Its value is -0.197 ± 0.077.

What about the “self-splicing fitness (ln)” value (37 °C) of the same sequence?
Its value is 0.211 ± 0.1.

With CGAUAGCAAUAUUACGGUCC as the sequence, how does the “self-splicing fitness (ln)” value (30 °C) read?
Its value is -1.2 ± 0.21.

And the “self-splicing fitness (ln)” value (37 °C)?
The value was -0.541 ± 0.23.

For CGAUAGCAAUAUUACGGUCG, which “self-splicing fitness (ln)” value (30 °C) is on record?
The value was -4.36 ± 0.29.

What about the “self-splicing fitness (ln)” value (37 °C) of the same sequence?
Its value is -3.39 ± 0.35.

Which “self-splicing fitness (ln)” value (30 °C) does the source give for CGAUAGCAAUAUUACGGUGA here?
The value was -2.74 ± 0.2.

And the “self-splicing fitness (ln)” value (37 °C)?
Its value is -1.94 ± 0.19.

For CGAUAGCAAUAUUACGUAAU, which “self-splicing fitness (ln)” value (30 °C) is on record?
The value was -2.55 ± 0.15.

And the “self-splicing fitness (ln)” value (37 °C)?
The value was -1.92 ± 0.15.

With CGAUAGCAAUAUUACGUACC as the sequence, how does the “self-splicing fitness (ln)” value (37 °C) read?
The value was -1.56 ± 0.44.

With CGAUAGCAAUAUUACGUGAG as the sequence, how does the “self-splicing fitness (ln)” value (30 °C) read?
Its value is -0.997 ± 0.07.

What about the “self-splicing fitness (ln)” value (37 °C) of the same sequence?
Its value is -0.771 ± 0.091.

With CGAUAGCAAUAUUACGUUAA as the sequence, how does the “self-splicing fitness (ln)” value (30 °C) read?
Its value is -3.59 ± 0.21.

And the “self-splicing fitness (ln)” value (37 °C)?
The value was -1.15 ± 0.16.

What does the source list for CGAUAGCAAUAUUACGUUAC?
self-splicing fitness (ln) (30 °C): -3.47 ± 0.28; self-splicing fitness (ln) (37 °C): -2.17 ± 0.2

What does the source list for CGAUAGCAAUAUUACGUUAU?
self-splicing fitness (ln) (30 °C): -3.93 ± 0.33; self-splicing fitness (ln) (37 °C): -1.61 ± 0.18

Which “self-splicing fitness (ln)” value (30 °C) does the source give for CGCAAGCAAUAUUACGAAAU here?
Its value is -3.48 ± 0.21.

And the “self-splicing fitness (ln)” value (37 °C)?
Its value is -1.86 ± 0.18.

Which results are given for CGCAAGCAAUAUUACGAACA?
self-splicing fitness (ln) (30 °C): -0.432 ± 0.1; self-splicing fitness (ln) (37 °C): 0.252 ± 0.1

What does the source list for CGCAAGCAAUAUUACGAAUA?
self-splicing fitness (ln) (30 °C): -3.27 ± 0.21; self-splicing fitness (ln) (37 °C): -2.4 ± 0.2

Which “self-splicing fitness (ln)” value (30 °C) does the source give for CGCAAGCAAUAUUACGACGA here?
The value was -1.48 ± 0.11.

And the “self-splicing fitness (ln)” value (37 °C)?
The value was -0.997 ± 0.11.

Which “self-splicing fitness (ln)” value (37 °C) does the source give for CGCAAGCAAUAUUACGACUU here?
The value was -2.07 ± 0.25.

What does the source list for CGCAAGCAAUAUUACGAUCC?
self-splicing fitness (ln) (30 °C): -1.71 ± 0.12; self-splicing fitness (ln) (37 °C): -1.36 ± 0.19

What does the source list for CGCAAGCAAUAUUACGAUCG?
self-splicing fitness (ln) (30 °C): -1.19 ± 0.1; self-splicing fitness (ln) (37 °C): -0.342 ± 0.14

With CGCAAGCAAUAUUACGCAUU as the sequence, how does the “self-splicing fitness (ln)” value (30 °C) read?
Its value is -4.11 ± 0.19.

And the “self-splicing fitness (ln)” value (37 °C)?
Its value is -3.12 ± 0.21.

Which results are given for CGCAAGCAAUAUUACGCCUG?
self-splicing fitness (ln) (30 °C): -1.96 ± 0.13; self-splicing fitness (ln) (37 °C): -2.52 ± 0.23

Which results are given for CGCAAGCAAUAUUACGCGGA?
self-splicing fitness (ln) (30 °C): -2.93 ± 0.28; self-splicing fitness (ln) (37 °C): -2.41 ± 0.23

With CGCAAGCAAUAUUACGCUCC as the sequence, how does the “self-splicing fitness (ln)” value (30 °C) read?
The value was -2.06 ± 0.27.

What about the “self-splicing fitness (ln)” value (37 °C) of the same sequence?
The value was -1.11 ± 0.38.

For CGCAAGCAAUAUUACGGAAC, which “self-splicing fitness (ln)” value (30 °C) is on record?
Its value is -3.07 ± 0.21.

What about the “self-splicing fitness (ln)” value (37 °C) of the same sequence?
Its value is -2.87 ± 0.32.

What does the source list for CGCAAGCAAUAUUACGGAGA?
self-splicing fitness (ln) (30 °C): -3.09 ± 0.18; self-splicing fitness (ln) (37 °C): -2.54 ± 0.19

With CGCAAGCAAUAUUACGGAUU as the sequence, how does the “self-splicing fitness (ln)” value (30 °C) read?
Its value is -4.84 ± 0.34.

And the “self-splicing fitness (ln)” value (37 °C)?
The value was -1.5 ± 0.19.

For CGCAAGCAAUAUUACGGCGA, which “self-splicing fitness (ln)” value (30 °C) is on record?
The value was -1.91 ± 0.24.

And the “self-splicing fitness (ln)” value (37 °C)?
The value was -0.653 ± 0.17.

Which “self-splicing fitness (ln)” value (30 °C) does the source give for CGCAAGCAAUAUUACGGCUU here?
Its value is -2.5 ± 0.14.

What about the “self-splicing fitness (ln)” value (37 °C) of the same sequence?
The value was -2.28 ± 0.2.
